The conditions of data set [1]: rat, in vivo, iv.
Experimental: (§1) Thirty one (31) adult male Sprague-Dawley rats with indwelling jugular vein and carotid artery catheters (JVC/CAC) (Charles River Labs, Hollister, Calif.) were utilized for this study. […] All animals were food fasted overnight. Prior to dosing, the rats were weighed, the tails and cage cards were labeled for identification and the doses were calculated. Anesthesia was induced and maintained with 3.0-5.0% isoflurane. The JVC and CAC were externalized and flushed with HEP/saline (10 IU/mL HEP/mL saline). The predose sample was collected from the JVC and the catheters were plugged, and labeled to identify the jugular vein and carotid artery. When all of the animals had recovered from anesthesia and the predose samples were processed, the animals were dosed, intravenously (IV) via the JVC using a 1 mL syringe containing the appropriate test article and the dead volume of the catheter was flushed with 0.9% saline to ensure the animals received the correct dose.
(§2) Following a single IV dose, blood samples were collected from groups 1A, 2A, 3A and 4A, at 0 (pre-dose collected as described above), 0.03, 0.33, 2.0, 6.0, 12.0 and 72.0 hours and from Groups 1B, 2B, 3B and 4B at 0 (pre-dose collected as described above), 0.17, 1.0, 4.0, 8.0, 24.0 and 48.0 hours via the carotid artery catheter and processed as stated in the protocol. Following the last collection point, the animals were euthanized.
(§3) Concentrations in plasma that were below LLOQ were replaced with zeros prior to generating Tables and PK analysis. In the event that more than half (>50%) of the data points were below zero, mean concentration will not be shown in the figures or used in PK parameters estimation. The following PK parameters were estimated using plasma concentration-time profile of each animal:
Data set [2] can be described thus: Pharmacokinetic study after a single intravenous dose in rats (noncompartmental analysis of plasma concentrations). The following applies: for Cmax: test article in plasma (non-released PEG-BNP, or native BNP), equivalent protein mass 0.459 mg/kg IV.
Experimental: as §1, §2, §3
Where [3] appears, read: non-released PEG-BNP in plasma, 0.459 mg/kg IV, Sprague Dawley rats.
Setting [4] is: BNP in plasma (released from conjugate or given as native BNP), 0.459 mg/kg IV, rats.

“Also recorded” adds a separate entry of the source. Like-named read-outs stand apart in the source and are kept apart here.

Take `CC[C@H](C)[C@@H]1NC(=O)[C@H](CCCNC(=N)N)NC(=O)[C@H](CC(=O)O)NC(=O)[C@H](CCSC)NC(=O)[C@H](CCCCN)NC(=O)[C@H](CCCNC(=N)N)NC(=O)CNC(=O)[C@H](Cc2ccccc2)NC(=O)[C@@H](NC(=O)CNC(=O)[C@H](CO)NC(=O)CNC(=O)[C@H](CCC(N)=O)NC(=O)[C@@H](NC(=O)[C@H](CCSC)NC(=O)[C@H](CCCCN)NC(=O)[C@@H]2CCCN2C(=O)[C@@H](N)CO)C(C)C)CSSC[C@@H](C(=O)N[C@@H](CCCCN)C(=O)N[C@H](C(=O)N[C@@H](CC(C)C)C(=O)N[C@@H](CCCN=C(N)N)C(=O)N[C@@H](CCCN=C(N)N)C(=O)N[C@@H](Cc2cnc[nH]2)C(=O)O)C(C)C)NC(=O)CNC(=O)[C@H](CC(C)C)NC(=O)CNC(=O)[C@H](CO)NC(=O)[C@H](CO)NC(=O)[C@H](CO)NC(=O)[C@H](CO)NC1=O` [BNP, Nesiritide]: the Cmax in data set [1] (0.459 mg/kg) worked out at 0.00 ng/mL. The “measurable BNP in plasma (in words)” value in data set [2] (following parent BNP administration IV, rats) is “No measurable plasma concentrations; also recorded: No BNP was measurable”.

Consider “ButyrALD-10K-BNP: non-releasable mono-PEG conjugate (N-terminus directed) of BNP-32 with mPEG-Butyr-ALD-10K”, for which, in data set [2] (setting [3]), the AUCINF turned out to be 96.6 ng·h/mL, the CL was determined as 79.17 mL/min/kg, the MRTlast came out at 0.368 h and the T½ amounted to 0.272 h. Moreover, the Vss in data set [2] (setting [3]) worked out at 2.27 L/kg. Besides, the Cmax in data set [2] (Sprague Dawley rats) was determined as 355 ng/mL.

“ButyrALD-40K-BNP: non-releasable mono-PEG conjugate (N-terminus directed) of BNP-32 with mPEG2-Butyr-ALD 40 kDa”: in data set [1], the “peak plasma concentration compared with ButyrALD-10K-BNP (in words)” value is on record as “higher”. Besides, in data set [2] (non-releasable PEG constructs, IV, rats), the “clearance compared with ButyrALD-10K-BNP (in words)” value was “lower”. In data set [2] (non-releasable PEG constructs, IV, rats, pooled data), the “half-life compared with ButyrALD-10K-BNP (in words)” value is reported as “longer”. For the same molecule, in data set [2] (setting [3]), the AUCINF was 41300 ng·h/mL, the CL amounted to 0.185 mL/min/kg, the MRTlast came to 24.0 h and the T½ is 26.1 h. Moreover, in data set [2] (setting [3]), the Vss is 0.631 L/kg. In data set [2] (Sprague Dawley rats), the Cmax worked out at 1410 ng/mL.

Take “C2-FMOC-PEG2-40K-BNP: releasable mono-PEG conjugate of BNP-32 made with mPEG2-C2-fmoc-NHS-40K; hydrolysis generates unmodified peptide”: the “Peak concentrations of the conjugate in plasma” value in data set [1] (male, Sprague-Dawley) came out at 1300 ng/mL. Also, the “time of peak concentrations of released BNP” value in data set [1] amounted to 0.3 h. Besides, the “plasma conjugate concentrations remained above” value in data set [1] (24 h) is “above 100 ng/mL”. In addition, in data set [2] (setting [4]), the AUCINF was found to be 162 ng·h/mL, the MRTlast stood at 1.84 h and the Tmax came out at 0.33 h. Also, the “half-life of the conjugate in plasma” value in data set [2] (intact C2-FMOC-PEG2-40K-BNP in plasma, IV, rats) is 15.0 h.

For the origin of these results see patent US8449872B2, “Polymer conjugates of nesiritide peptides” (priority 2008, dated 2013).
